Laboratory results published in publication PMC5797146.
Where “and” joins values, the source holds several entries; their conditions need not be identical. Equal entries are not always repeated.

What was measured:
[1] = target: Clostridium difficile toxin A (Clostridium difficile) (UniProt P16154)
[2] = target: Clostridium difficile toxin A (Clostridium difficile) (UniProt P16154); experiment: SPR

B1: A26.8 VHH (parent) (VHH)
VHH: QVKLEESGGGLVQAGGSLRLSCAASERTFSRYPVAWFRQAPGAEREFVAVISSTGTSTYYADSVKGRFTISRDNAKVTVYLQMNNLKREDTAVYFCAVNSQRTRLQDPNEYDYWGQGTQVTVSS
- other [1]: 70 nM and 60%
- Kd [2]: 18.7 nM
- koff [2]: 0.034 s⁻¹
- kon [2]: 1.8e+06 M⁻¹ s⁻¹
